The results in this text go back to US20250043028A1 (Hoffmann-La Roche, published 2025).

For assay [1], the target named is T1, human CD3 expressed on Jurkat cells (human, UniProt P07766 23-207).
T1 construct: CD3 as part of the T cell receptor complex on Jurkat cells; also called huCD3; human CD3 on cells
As to the kind of experiment: flow cytometry on Jurkat cells. (In flow cytometry, cells or beads pass a laser one at a time.)

Assay [2] has as its target T2, human MCSP expressed on tumor cells (Colo-38, WM266-4, MV-3) (human, UniProt Q6UVK1 30-2322).
T2 construct: whole, on cells; also called huMCSP; Melanoma-associated Chondroitin Sulfate Proteoglycan
Put plainly: flow cytometry on WM266-4 cells.

Assay [3] addresses T2, human MCSP expressed on tumor cells …. As to the kind of experiment: cell-based or functional assay.
For assay [4] the target is unchanged. Put plainly: cell-based or functional assay. This is another data set of the same source.
For assay [5] the target is unchanged. Put plainly: FACS on Colo-38 cells, dose titration. As to the method:
Binding of the different bispecific constructs to CD3 on Jurkat cells (ATCC #TIB-152), and the respective tumor antigen on target cells, was determined by FACS. Briefly, cells were harvested, counted and checked for viability. 0.15-0.2 million cells per well (in PBS containing 0.1% BSA; 90 μl) were plated in a round-bottom 96-well plate and incubated with the indicated concentration of the bispecific constructs and corresponding IgG controls (10 μl) for 30 min at 4° C. For a better comparison, all constructs and IgG controls were normalized to same molarity. […] Bound constructs were detected using a FACSCantoII (Software FACS Diva). The “(scFv)₂” molecule was detected using a FITC-conjugated anti-His antibody (Lucerna, #RHIS-45F-Z). […] Unless otherwise indicated, cells were fixed with 100 μl/well fixation buffer (BD #554655) for 15 min at 4° C. in the dark, centrifuged for 6 min at 400×g and kept in 200 μl/well PBS containing 0.1% BSA until the samples were measured with FACS CantoII. EC50 values were calculated using the GraphPad Prism software.
In another experiment, the purified “2+1 IgG scFab” bispecific construct (SEQ ID NOs 5, 17, 19) and the corresponding anti human MCSP IgG were analyzed by flow cytometry for dose-dependent binding to human MCSP on Colo-38 human melanoma cells, to determine whether the bispecific construct binds to MCSP via one or both of its “arms”.

The target in the next assay is T3, HuFcγRIIIa-V158-K6H6 (human, UniProt P08637 17-208).
T3 construct: Captured on an anti-Penta His antibody on a CM5 chip; also called human FcγRIIIa-V158; human FcγRIIIa; not shown: K6H6 tag
Put plainly: SPR Biacore T100, 25 °C, kinetic fit, one concentration (1000 nM); receptor captured via anti-Penta His. As to the method: For analyzing interaction of different Fc-variants with human FcγRIIIa-V158 and murine FcγRIV direct coupling of around 6,500 resonance units (RU) of the anti-Penta His antibody (Qiagen) is performed on a CM5 chip at pH 5.0 using the standard amine coupling kit (Biacore, Freiburg/Germany). HuFcγRIIIa-V158-K6H6 and muFcγRIV-aviHis-biotin are captured for 60 s at 4 and 10 nM respectively.
Constructs with different Fc-mutations are passed through the flow cells for 120 s at a concentration of 1000 nM with a flow rate of 30 μl/min. The dissociation is monitored for 220 s. Bulk refractive index differences are corrected for by subtracting the response obtained in a reference flow cell. Here, the Fc-variants are flown over a surface with immobilized anti-Penta His antibody but on which HBS-EP has been injected rather than HuFcγRIIIa-V158-K6H6 or muFcγRIV-aviHis-biotin. Affinity for human FcγRIIIa-V158 and murine FcγRIV was determined for wild-type Fc using a concentration range from 500-4000 nM.
The steady state response was used to derive the dissociation constant KD by non-linear curve fitting of the Langmuir binding isotherm. Kinetic constants were derived using the Biacore T100 Evaluation Software (vAA, Biacore AB, Uppsala/Sweden), to fit rate equations for 1:1 Langmuir binding by numerical integration.

T2 sequence (Q6UVK1 30-2322): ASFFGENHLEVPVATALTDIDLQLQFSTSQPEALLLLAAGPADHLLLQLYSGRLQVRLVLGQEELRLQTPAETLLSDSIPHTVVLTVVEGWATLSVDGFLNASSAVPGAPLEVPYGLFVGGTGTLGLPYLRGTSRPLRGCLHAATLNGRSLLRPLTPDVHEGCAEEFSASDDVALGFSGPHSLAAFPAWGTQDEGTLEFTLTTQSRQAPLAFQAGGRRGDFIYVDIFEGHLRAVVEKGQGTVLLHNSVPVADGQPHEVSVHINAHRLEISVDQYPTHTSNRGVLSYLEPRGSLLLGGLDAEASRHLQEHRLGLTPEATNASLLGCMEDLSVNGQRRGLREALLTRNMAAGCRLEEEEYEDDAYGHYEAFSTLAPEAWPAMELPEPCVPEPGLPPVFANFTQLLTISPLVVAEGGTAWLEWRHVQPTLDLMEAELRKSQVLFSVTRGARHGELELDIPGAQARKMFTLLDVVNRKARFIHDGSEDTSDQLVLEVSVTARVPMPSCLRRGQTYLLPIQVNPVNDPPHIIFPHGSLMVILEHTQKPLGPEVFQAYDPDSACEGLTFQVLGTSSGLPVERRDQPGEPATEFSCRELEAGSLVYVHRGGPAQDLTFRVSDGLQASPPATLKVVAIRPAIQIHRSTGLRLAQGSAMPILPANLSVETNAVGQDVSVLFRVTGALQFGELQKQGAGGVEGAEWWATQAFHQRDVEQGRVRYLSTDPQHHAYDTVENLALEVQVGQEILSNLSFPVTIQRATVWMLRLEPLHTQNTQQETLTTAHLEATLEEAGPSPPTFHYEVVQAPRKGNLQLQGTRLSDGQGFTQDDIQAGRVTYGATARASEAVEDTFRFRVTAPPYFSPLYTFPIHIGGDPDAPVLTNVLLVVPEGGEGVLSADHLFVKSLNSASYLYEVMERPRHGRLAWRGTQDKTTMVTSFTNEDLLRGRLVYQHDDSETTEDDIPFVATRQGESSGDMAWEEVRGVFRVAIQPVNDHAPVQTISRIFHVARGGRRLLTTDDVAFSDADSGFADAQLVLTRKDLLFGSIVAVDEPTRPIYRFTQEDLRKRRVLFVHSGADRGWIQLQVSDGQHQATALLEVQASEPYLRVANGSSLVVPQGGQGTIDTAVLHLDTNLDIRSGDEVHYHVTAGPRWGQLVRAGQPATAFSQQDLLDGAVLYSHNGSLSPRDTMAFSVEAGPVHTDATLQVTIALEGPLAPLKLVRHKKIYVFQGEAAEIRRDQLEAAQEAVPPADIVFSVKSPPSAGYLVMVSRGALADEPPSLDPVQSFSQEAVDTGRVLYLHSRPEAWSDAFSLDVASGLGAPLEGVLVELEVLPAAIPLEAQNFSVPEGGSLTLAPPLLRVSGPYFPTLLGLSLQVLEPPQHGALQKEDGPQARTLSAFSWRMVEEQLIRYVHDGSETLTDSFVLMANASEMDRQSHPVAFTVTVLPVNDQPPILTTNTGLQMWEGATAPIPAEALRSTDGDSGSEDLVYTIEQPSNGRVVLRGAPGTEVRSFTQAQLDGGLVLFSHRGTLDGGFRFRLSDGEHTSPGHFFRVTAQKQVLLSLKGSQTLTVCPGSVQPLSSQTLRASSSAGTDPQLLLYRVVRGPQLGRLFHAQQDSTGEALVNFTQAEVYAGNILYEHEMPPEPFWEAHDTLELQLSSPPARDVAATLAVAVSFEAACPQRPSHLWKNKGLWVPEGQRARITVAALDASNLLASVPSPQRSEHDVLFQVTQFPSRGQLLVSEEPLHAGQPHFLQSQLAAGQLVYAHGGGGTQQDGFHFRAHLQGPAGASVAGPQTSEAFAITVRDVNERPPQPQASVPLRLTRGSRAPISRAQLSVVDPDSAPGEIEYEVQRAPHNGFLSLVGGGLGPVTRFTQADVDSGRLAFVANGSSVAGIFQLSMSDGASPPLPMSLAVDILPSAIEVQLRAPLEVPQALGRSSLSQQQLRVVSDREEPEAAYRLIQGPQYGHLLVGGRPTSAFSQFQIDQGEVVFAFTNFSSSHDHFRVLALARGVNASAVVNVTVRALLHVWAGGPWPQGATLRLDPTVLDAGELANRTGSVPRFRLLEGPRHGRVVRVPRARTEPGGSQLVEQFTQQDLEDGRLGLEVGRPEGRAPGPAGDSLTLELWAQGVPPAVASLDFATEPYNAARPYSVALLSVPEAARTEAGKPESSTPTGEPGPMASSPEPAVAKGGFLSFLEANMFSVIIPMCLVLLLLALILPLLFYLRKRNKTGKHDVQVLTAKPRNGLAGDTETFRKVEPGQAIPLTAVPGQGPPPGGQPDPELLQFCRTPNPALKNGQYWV
T1 sequence (P07766 23-207 limits assumed): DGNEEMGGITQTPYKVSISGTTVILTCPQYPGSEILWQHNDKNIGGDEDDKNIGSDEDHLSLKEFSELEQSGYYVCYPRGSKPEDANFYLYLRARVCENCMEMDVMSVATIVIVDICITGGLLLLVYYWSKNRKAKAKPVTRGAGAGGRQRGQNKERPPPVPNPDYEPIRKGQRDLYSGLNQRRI
T3 sequence (P08637 17-208 F176V): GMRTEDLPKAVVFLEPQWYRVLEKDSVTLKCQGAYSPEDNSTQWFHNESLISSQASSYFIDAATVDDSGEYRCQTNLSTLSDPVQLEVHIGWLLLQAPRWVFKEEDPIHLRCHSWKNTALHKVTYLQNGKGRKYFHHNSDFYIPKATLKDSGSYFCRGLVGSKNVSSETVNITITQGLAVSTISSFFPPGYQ

B1: “2+1 IgG Crossfab”; VH/VL exchange (LC007/V9) (anti-MCSP/anti-huCD3) (bispecific antibody)
chain 1: not shown
chain 2: DIVLTQSPSSLSASLGDRVTISCSASQGIRNYLNWYQQRPDGTVKLLIYYTSSLHSGVPSRFSGSGSGTDYSLTISNLEPEDIATYYCQQYSKLPWTFGGGTKLEIKRTVAAPSVFIFPPSDEQLKSGTASVVCLLNNFYPREAKVQWKVDNALQSGNSQESVTEQDSKDSTYSLSSTLTLSKADYEKHKVYACEVTHQGLSSPVTKSFNRGEC
chain 3: DIQMTQSPSSLSASVGDRVTITCRASQDIRNYLNWYQQKPGKAPKLLIYYTSRLESGVPSRFSGSGSGTDYTLTISSLQPEDFATYYCQQGNTLPWTFGQGTKVEIKSSASTKGPSVFPLAPSSKSTSGGTAALGCLVKDYFPEPVTVSWNSGALTSGVHTFPAVLQSSGLYSLSSVVTVPSSSLGTQTYICNVNHKPSNTKVDKKVEPKSCGGGGSGGGGSEVQLQESGPGLVKPSQSLSLTCSVTGYSITSGYYWNWIRQFPGNKLEWMGYITYDGSNNYNPSLKNRISITRDTSKNQFFLKLNSVTTEDTATYYCADFDYWGQGTTLTVSSASTKGPSVFPLAPSSKSTSGGTAALGCLVKDYFPEPVTVSWNSGALTSGVHTFPAVLQSSGLYSLSSVVTVPSSSLGTQTYICNVNHKPSNTKVDKKVEPKSCDKTHTCPPCPAPEAAGGPSVFLFPPKPKDTLMISRTPEVTCVVVDVSHEDPEVKFNWYVDGVEVHNAKTKPREEQYNSTYRVVSVLTVLHQDWLNGKEYKCKVSNKALGAPIEKTISKAKGQPREPQVCTLPPSRDELTKNQVSLSCAVKGFYPSDIAVEWESNGQPENNYKTTPPVLDSDGSFFLVSKLTVDKSRWQQGNVFSCSVMHEALHNHYTQKSLSLSPGK
chain 4: EVQLVESGGGLVQPGGSLRLSCAASGYSFTGYTMNWVRQAPGKGLEWVALINPYKGVSTYNQKFKDRFTISVDKSKNTAYLQMNSLRAEDTAVYYCARSGYYGDSDWYFDVWGQGTLVTVSSASVAAPSVFIFPPSDEQLKSGTASVVCLLNNFYPREAKVQWKVDNALQSGNSQESVTEQDSKDSTYSLSSTLTLSKADYEKHKVYACEVTHQGLSSPVTKSFNRGEC
notes: vectors transfected 1:2:1:1 (second heavy chain : light chain : first heavy chain-heavy chain Crossfab : light chain Crossfab); also called 2+1 IgG Crossfab (V9)
A word on the EC50: it is the concentration needed to bring the measured effect to its halfway point. Low values mean greater potency, high ones weaker potency. Molecule B1 came in with a concentration for a half-maximal effect (EC50) in assay [1] of 1.66 nM. Moreover, in assay [2], a half-maximal effect (EC50) was put at 0.95 nM. For the same molecule, in assay [3], the “EC50 [pM] of T cell-mediated killing (LDH release) of MV-3 cells, human PBMCs, E:T 10:1, about 24 h” value turned out to be 10 pM and the “EC50 [pM] of T cell-mediated killing (LDH release) of WM266-4 cells, human PBMCs, E:T 10:1, about 24 h” value amounted to 12.4 pM. Besides, in assay [4], the “EC50 of killing (LDH release) of MV-3 cells, human PBMCs, E:T 10:1, 21 h” value came to 0.0092 nM and the “EC50 of killing (LDH release) of WM266-4 cells, human PBMCs, E:T 10:1, 21 h” value was found to be 0.0331 nM.

B2: “2+1 IgG Crossfab, inverted”; CL/CH1 exchange (LC007/anti-CD3) (anti-MCSP/anti-huCD3) (bispecific antibody)
chain 1: DIVLTQSPSSLSASLGDRVTISCSASQGIRNYLNWYQQRPDGTVKLLIYYTSSLHSGVPSRFSGSGSGTDYSLTISNLEPEDIATYYCQQYSKLPWTFGGGTKLEIKRTVAAPSVFIFPPSDEQLKSGTASVVCLLNNFYPREAKVQWKVDNALQSGNSQESVTEQDSKDSTYSLSSTLTLSKADYEKHKVYACEVTHQGLSSPVTKSFNRGEC
chain 2: EVQLQESGPGLVKPSQSLSLTCSVTGYSITSGYYWNWIRQFPGNKLEWMGYITYDGSNNYNPSLKNRISITRDTSKNQFFLKLNSVTTEDTATYYCADFDYWGQGTTLTVSSASTKGPSVFPLAPSSKSTSGGTAALGCLVKDYFPEPVTVSWNSGALTSGVHTFPAVLQSSGLYSLSSVVTVPSSSLGTQTYICNVNHKPSNTKVDKKVEPKSCDKTHTCPPCPAPEAAGGPSVFLFPPKPKDTLMISRTPEVTCVVVDVSHEDPEVKFNWYVDGVEVHNAKTKPREEQYNSTYRVVSVLTVLHQDWLNGKEYKCKVSNKALGAPIEKTISKAKGQPREPQVCTLPPSRDELTKNQVSLSCAVKGFYPSDIAVEWESNGQPENNYKTTPPVLDSDGSFFLVSKLTVDKSRWQQGNVFSCSVMHEALHNHYTQKSLSLSPGK
chain 3: QAVVTQESALTTSPGETVTLTCRSSTGAVTTSNYANWVQEKPDHLFTGLIGGTNKRAPGVPARFSGSLIGDKAALTITGAQTEDEAIYFCALWYSNLWVFGGGTKLTVLSSASTKGPSVFPLAPSSKSTSGGTAALGCLVKDYFPEPVTVSWNSGALTSGVHTFPAVLQSSGLYSLSSVVTVPSSSLGTQTYICNVNHKPSNTKVDKKVEPKSC
chain 4: not shown
Take B2: in assay [1], a half-maximal effect (EC50) was put at 32 nM. Besides, in assay [2], it took 3.4 nM to reach a half-maximal effect (EC50). Further, in assay [3], the “EC50 [pM] of T cell-mediated killing (LDH release) of MV-3 cells, human PBMCs, E:T 10:1, about 24 h” value was found to be 3 pM and the “EC50 [pM] of T cell-mediated killing (LDH release) of WM266-4 cells, human PBMCs, E:T 10:1, about 24 h” value worked out at 7.1 pM.

B3: “2+1 IgG scFab, LALA” (anti-MCSP/anti-huCD3) (bispecific antibody)
chain 1: DIVLTQSPSSLSASLGDRVTISCSASQGIRNYLNWYQQRPDGTVKLLIYYTSSLHSGVPSRFSGSGSGTDYSLTISNLEPEDIATYYCQQYSKLPWTFGGGTKLEIKRTVAAPSVFIFPPSDEQLKSGTASVVCLLNNFYPREAKVQWKVDNALQSGNSQESVTEQDSKDSTYSLSSTLTLSKADYEKHKVYACEVTHQGLSSPVTKSFNRGEC
chain 2: not shown
chain 3: EVQLQESGPGLVKPSQSLSLTCSVTGYSITSGYYWNWIRQFPGNKLEWMGYITYDGSNNYNPSLKNRISITRDTSKNQFFLKLNSVTTEDTATYYCADFDYWGQGTTLTVSSASTKGPSVFPLAPSSKSTSGGTAALGCLVKDYFPEPVTVSWNSGALTSGVHTFPAVLQSSGLYSLSSVVTVPSSSLGTQTYICNVNHKPSNTKVDKKVEPKSCDKTHTCPPCPAPEAAGGPSVFLFPPKPKDTLMISRTPEVTCVVVDVSHEDPEVKFNWYVDGVEVHNAKTKPREEQYNSTYRVVSVLTVLHQDWLNGKEYKCKVSNKALPAPIEKTISKAKGQPREPQVCTLPPSRDELTKNQVSLSCAVKGFYPSDIAVEWESNGQPENNYKTTPPVLDSDGSFFLVSKLTVDKSRWQQGNVFSCSVMHEALHNHYTQKSLSLSPGK
notes: also called Fc-LALA; copies: 2 + 1 + 1
What is called EC50 (read off the curve) is the concentration giving half of the maximal effect. What is called Kd is the concentration at which binding is half-saturated. Low readings indicate higher affinity, high ones lower affinity. As for B3, in assay [5], the half-maximal effective concentration (EC50 (read off the curve)) was roughly 0.06 nM. Further, in the assay with HuFcγRIIIa-V158-K6H6, the Kd amounted to 2130 nM.
